Results: the RNAGym collection of RNA variant scans (doi:10.1093/molbev/msab373)

B1: Azoarcus group I ribozyme (parent)
chain: GUGCCUUGCGCCGGGAAACCACGCAAGGGAUGGUGUCAAAUUCGGCGAAACCUAAGCGCCCGCCCGGGCGUAUGGCAACGCCGAGCCAAGCUUCGGCGCCUGCGCCGAUGAAGGUGUAGAGACUAGACGGCACCCACCUAAGGCAAACGCUAUGGUGAAGGCAUAGUCCAGGGAGUGGCGAAAGUCACACAAACCGG

Variants of: B1
Test: reverse-splicing fitness (ratio to wild type); higher = more active; in vitro selection; Mg2+ level not given
In short: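 An in vitro group I ribozyme library with randomized positions was T7-transcribed and gel-purified. In triplicate, 10 pmol RNA in EPPS pH 7.5 was reacted with 50 pmoles of a 30-nt RNA substrate for 1 h at 37 °C across several added MgCl2 levels (1–48 mM), then stopped with EDTA. Products were reverse transcribed from a substrate-complementary primer, PCR-amplified and sequenced (HiSeq 4000). Fitness is a variant's read proportion after selection over that before, normalised to wild type.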

Variant | reverse-splicing fitness
GUGCCUUGCGCCGGGAAACCACGCAAGGGAUGGUGUCAAAUUCGGCGAAACCUAAGCGCCCGCCCGGGCGUAUGGCAACGCCGAGCCAAGCUUCGGCGCCUGCGCCGAUGGAGGUGUAGAGACUAGACGGCACCCACCUAAGGCCAACGGUAUGGUGAAGGCAUAGUCGAGGGAGAGGCGAAAGUCACACAAACCGG [A111G A145C C150G C169G U176A] | 0.00824
GUGCCUUGCGCCGGGAAACCACGCAAGGGAUGGUGUCAAAUUCGGCGAAACCUAAGCGCCCGCCCGGGCGUAUGGCAACGCCGAGCCAAGCUUCGGCGCCUGCGCCGAUGGAGGUGUAGAGACUAGACGGCACCCACCUAAGGCCAACGGUAUGGUGAAGGCAUAGUCGAGGGAGCGGCGAAAGUCACACAAACCGG [A111G A145C C150G C169G U176C] | 0.00562
GUGCCUUGCGCCGGGAAACCACGCAAGGGAUGGUGUCAAAUUCGGCGAAACCUAAGCGCCCGCCCGGGCGUAUGGCAACGCCGAGCCAAGCUUCGGCGCCUGCGCCGAUGGAGGUGUAGAGACUAGACGGCACCCACCUAAGGCCAACGGUAUGGUGAAGGCAUAGUCGAGGGAGGGGCGAAAGUCACACAAACCGG [A111G A145C C150G C169G U176G] | 0.00435
GUGCCUUGCGCCGGGAAACCACGCAAGGGAUGGUGUCAAAUUCGGCGAAACCUAAGCGCCCGCCCGGGCGUAUGGCAACGCCGAGCCAAGCUUCGGCGCCUGCGCCGAUGGAGGUGUAGAGACUAGACGGCACCCACCUAAGGCCAACGGUAUGGUGAAGGCAUAGUCUAGGGAGUGGCGAAAGUCACACAAACCGG [A111G A145C C150G C169U] | 0.0255
GUGCCUUGCGCCGGGAAACCACGCAAGGGAUGGUGUCAAAUUCGGCGAAACCUAAGCGCCCGCCCGGGCGUAUGGCAACGCCGAGCCAAGCUUCGGCGCCUGCGCCGAUGGAGGUGUAGAGACUAGACGGCACCCACCUAAGGCCAACGGUAUGGUGAAGGCAUAGUCUAGGGAGAGGCGAAAGUCACACAAACCGG [A111G A145C C150G C169U U176A] | 0.00841
GUGCCUUGCGCCGGGAAACCACGCAAGGGAUGGUGUCAAAUUCGGCGAAACCUAAGCGCCCGCCCGGGCGUAUGGCAACGCCGAGCCAAGCUUCGGCGCCUGCGCCGAUGGAGGUGUAGAGACUAGACGGCACCCACCUAAGGCCAACGGUAUGGUGAAGGCAUAGUCUAGGGAGCGGCGAAAGUCACACAAACCGG [A111G A145C C150G C169U U176C] | 0.0138
GUGCCUUGCGCCGGGAAACCACGCAAGGGAUGGUGUCAAAUUCGGCGAAACCUAAGCGCCCGCCCGGGCGUAUGGCAACGCCGAGCCAAGCUUCGGCGCCUGCGCCGAUGGAGGUGUAGAGACUAGACGGCACCCACCUAAGGCCAACGGUAUGGUGAAGGCAUAGUCUAGGGAGGGGCGAAAGUCACACAAACCGG [A111G A145C C150G C169U U176G] | 0.00527
GUGCCUUGCGCCGGGAAACCACGCAAGGGAUGGUGUCAAAUUCGGCGAAACCUAAGCGCCCGCCCGGGCGUAUGGCAACGCCGAGCCAAGCUUCGGCGCCUGCGCCGAUGGAGGUGUAGAGACUAGACGGCACCCACCUAAGGCCAACGGUAUGGUGAAGGCAUAGUCCAGGGAGAGGCGAAAGUCACACAAACCGG [A111G A145C C150G U176A] | 0.17
GUGCCUUGCGCCGGGAAACCACGCAAGGGAUGGUGUCAAAUUCGGCGAAACCUAAGCGCCCGCCCGGGCGUAUGGCAACGCCGAGCCAAGCUUCGGCGCCUGCGCCGAUGGAGGUGUAGAGACUAGACGGCACCCACCUAAGGCCAACGGUAUGGUGAAGGCAUAGUCCAGGGAGCGGCGAAAGUCACACAAACCGG [A111G A145C C150G U176C] | 0.212
GUGCCUUGCGCCGGGAAACCACGCAAGGGAUGGUGUCAAAUUCGGCGAAACCUAAGCGCCCGCCCGGGCGUAUGGCAACGCCGAGCCAAGCUUCGGCGCCUGCGCCGAUGGAGGUGUAGAGACUAGACGGCACCCACCUAAGGCCAACGGUAUGGUGAAGGCAUAGUCCAGGGAGGGGCGAAAGUCACACAAACCGG [A111G A145C C150G U176G] | 0.0319
GUGCCUUGCGCCGGGAAACCACGCAAGGGAUGGUGUCAAAUUCGGCGAAACCUAAGCGCCCGCCCGGGCGUAUGGCAACGCCGAGCCAAGCUUCGGCGCCUGCGCCGAUGGAGGUGUAGAGACUAGACGGCACCCACCUAAGGCCAACGUUAUGGUGAAGGCAUAGUCCAGGGAGUGGCGAAAGUCACACAAACCGG [A111G A145C C150U] | 0.688
GUGCCUUGCGCCGGGAAACCACGCAAGGGAUGGUGUCAAAUUCGGCGAAACCUAAGCGCCCGCCCGGGCGUAUGGCAACGCCGAGCCAAGCUUCGGCGCCUGCGCCGAUGGAGGUGUAGAGACUAGACGGCACCCACCUAAGGCCAACGUUAUGGUGAAGGCAUAGUCAAGGGAGUGGCGAAAGUCACACAAACCGG [A111G A145C C150U C169A] | 0.0167
GUGCCUUGCGCCGGGAAACCACGCAAGGGAUGGUGUCAAAUUCGGCGAAACCUAAGCGCCCGCCCGGGCGUAUGGCAACGCCGAGCCAAGCUUCGGCGCCUGCGCCGAUGGAGGUGUAGAGACUAGACGGCACCCACCUAAGGCCAACGUUAUGGUGAAGGCAUAGUCAAGGGAGAGGCGAAAGUCACACAAACCGG [A111G A145C C150U C169A U176A] | 0.0101
GUGCCUUGCGCCGGGAAACCACGCAAGGGAUGGUGUCAAAUUCGGCGAAACCUAAGCGCCCGCCCGGGCGUAUGGCAACGCCGAGCCAAGCUUCGGCGCCUGCGCCGAUGGAGGUGUAGAGACUAGACGGCACCCACCUAAGGCCAACGUUAUGGUGAAGGCAUAGUCAAGGGAGCGGCGAAAGUCACACAAACCGG [A111G A145C C150U C169A U176C] | 0.00832
GUGCCUUGCGCCGGGAAACCACGCAAGGGAUGGUGUCAAAUUCGGCGAAACCUAAGCGCCCGCCCGGGCGUAUGGCAACGCCGAGCCAAGCUUCGGCGCCUGCGCCGAUGGAGGUGUAGAGACUAGACGGCACCCACCUAAGGCCAACGUUAUGGUGAAGGCAUAGUCAAGGGAGGGGCGAAAGUCACACAAACCGG [A111G A145C C150U C169A U176G] | 0.0059
GUGCCUUGCGCCGGGAAACCACGCAAGGGAUGGUGUCAAAUUCGGCGAAACCUAAGCGCCCGCCCGGGCGUAUGGCAACGCCGAGCCAAGCUUCGGCGCCUGCGCCGAUGGAGGUGUAGAGACUAGACGGCACCCACCUAAGGCCAACGUUAUGGUGAAGGCAUAGUCGAGGGAGUGGCGAAAGUCACACAAACCGG [A111G A145C C150U C169G] | 0.0327
GUGCCUUGCGCCGGGAAACCACGCAAGGGAUGGUGUCAAAUUCGGCGAAACCUAAGCGCCCGCCCGGGCGUAUGGCAACGCCGAGCCAAGCUUCGGCGCCUGCGCCGAUGGAGGUGUAGAGACUAGACGGCACCCACCUAAGGCCAACGUUAUGGUGAAGGCAUAGUCGAGGGAGAGGCGAAAGUCACACAAACCGG [A111G A145C C150U C169G U176A] | 0.0242
GUGCCUUGCGCCGGGAAACCACGCAAGGGAUGGUGUCAAAUUCGGCGAAACCUAAGCGCCCGCCCGGGCGUAUGGCAACGCCGAGCCAAGCUUCGGCGCCUGCGCCGAUGGAGGUGUAGAGACUAGACGGCACCCACCUAAGGCCAACGUUAUGGUGAAGGCAUAGUCGAGGGAGCGGCGAAAGUCACACAAACCGG [A111G A145C C150U C169G U176C] | 0.0204
GUGCCUUGCGCCGGGAAACCACGCAAGGGAUGGUGUCAAAUUCGGCGAAACCUAAGCGCCCGCCCGGGCGUAUGGCAACGCCGAGCCAAGCUUCGGCGCCUGCGCCGAUGGAGGUGUAGAGACUAGACGGCACCCACCUAAGGCCAACGUUAUGGUGAAGGCAUAGUCGAGGGAGGGGCGAAAGUCACACAAACCGG [A111G A145C C150U C169G U176G] | 0.00586
GUGCCUUGCGCCGGGAAACCACGCAAGGGAUGGUGUCAAAUUCGGCGAAACCUAAGCGCCCGCCCGGGCGUAUGGCAACGCCGAGCCAAGCUUCGGCGCCUGCGCCGAUGGAGGUGUAGAGACUAGACGGCACCCACCUAAGGCCAACGUUAUGGUGAAGGCAUAGUCUAGGGAGUGGCGAAAGUCACACAAACCGG [A111G A145C C150U C169U] | 0.0495
GUGCCUUGCGCCGGGAAACCACGCAAGGGAUGGUGUCAAAUUCGGCGAAACCUAAGCGCCCGCCCGGGCGUAUGGCAACGCCGAGCCAAGCUUCGGCGCCUGCGCCGAUGGAGGUGUAGAGACUAGACGGCACCCACCUAAGGCCAACGUUAUGGUGAAGGCAUAGUCUAGGGAGAGGCGAAAGUCACACAAACCGG [A111G A145C C150U C169U U176A] | 0.0217
GUGCCUUGCGCCGGGAAACCACGCAAGGGAUGGUGUCAAAUUCGGCGAAACCUAAGCGCCCGCCCGGGCGUAUGGCAACGCCGAGCCAAGCUUCGGCGCCUGCGCCGAUGGAGGUGUAGAGACUAGACGGCACCCACCUAAGGCCAACGUUAUGGUGAAGGCAUAGUCUAGGGAGCGGCGAAAGUCACACAAACCGG [A111G A145C C150U C169U U176C] | 0.0247
GUGCCUUGCGCCGGGAAACCACGCAAGGGAUGGUGUCAAAUUCGGCGAAACCUAAGCGCCCGCCCGGGCGUAUGGCAACGCCGAGCCAAGCUUCGGCGCCUGCGCCGAUGGAGGUGUAGAGACUAGACGGCACCCACCUAAGGCCAACGUUAUGGUGAAGGCAUAGUCUAGGGAGGGGCGAAAGUCACACAAACCGG [A111G A145C C150U C169U U176G] | 0.0062
GUGCCUUGCGCCGGGAAACCACGCAAGGGAUGGUGUCAAAUUCGGCGAAACCUAAGCGCCCGCCCGGGCGUAUGGCAACGCCGAGCCAAGCUUCGGCGCCUGCGCCGAUGGAGGUGUAGAGACUAGACGGCACCCACCUAAGGCCAACGUUAUGGUGAAGGCAUAGUCCAGGGAGAGGCGAAAGUCACACAAACCGG [A111G A145C C150U U176A] | 0.456
GUGCCUUGCGCCGGGAAACCACGCAAGGGAUGGUGUCAAAUUCGGCGAAACCUAAGCGCCCGCCCGGGCGUAUGGCAACGCCGAGCCAAGCUUCGGCGCCUGCGCCGAUGGAGGUGUAGAGACUAGACGGCACCCACCUAAGGCCAACGUUAUGGUGAAGGCAUAGUCCAGGGAGCGGCGAAAGUCACACAAACCGG [A111G A145C C150U U176C] | 0.491
GUGCCUUGCGCCGGGAAACCACGCAAGGGAUGGUGUCAAAUUCGGCGAAACCUAAGCGCCCGCCCGGGCGUAUGGCAACGCCGAGCCAAGCUUCGGCGCCUGCGCCGAUGGAGGUGUAGAGACUAGACGGCACCCACCUAAGGCCAACGUUAUGGUGAAGGCAUAGUCCAGGGAGGGGCGAAAGUCACACAAACCGG [A111G A145C C150U U176G] | 0.23
GUGCCUUGCGCCGGGAAACCACGCAAGGGAUGGUGUCAAAUUCGGCGAAACCUAAGCGCCCGCCCGGGCGUAUGGCAACGCCGAGCCAAGCUUCGGCGCCUGCGCCGAUGGAGGUGUAGAGACUAGACGGCACCCACCUAAGGCCAACGCUAUGGUGAAGGCAUAGUCAAGGGAGUGGCGAAAGUCACACAAACCGG [A111G A145C C169A] | 0.0493
GUGCCUUGCGCCGGGAAACCACGCAAGGGAUGGUGUCAAAUUCGGCGAAACCUAAGCGCCCGCCCGGGCGUAUGGCAACGCCGAGCCAAGCUUCGGCGCCUGCGCCGAUGGAGGUGUAGAGACUAGACGGCACCCACCUAAGGCCAACGCUAUGGUGAAGGCAUAGUCAAGGGAGAGGCGAAAGUCACACAAACCGG [A111G A145C C169A U176A] | 0.0126
GUGCCUUGCGCCGGGAAACCACGCAAGGGAUGGUGUCAAAUUCGGCGAAACCUAAGCGCCCGCCCGGGCGUAUGGCAACGCCGAGCCAAGCUUCGGCGCCUGCGCCGAUGGAGGUGUAGAGACUAGACGGCACCCACCUAAGGCCAACGCUAUGGUGAAGGCAUAGUCAAGGGAGCGGCGAAAGUCACACAAACCGG [A111G A145C C169A U176C] | 0.0139
GUGCCUUGCGCCGGGAAACCACGCAAGGGAUGGUGUCAAAUUCGGCGAAACCUAAGCGCCCGCCCGGGCGUAUGGCAACGCCGAGCCAAGCUUCGGCGCCUGCGCCGAUGGAGGUGUAGAGACUAGACGGCACCCACCUAAGGCCAACGCUAUGGUGAAGGCAUAGUCAAGGGAGGGGCGAAAGUCACACAAACCGG [A111G A145C C169A U176G] | 0.00444
